Data from paper PMC2699419 (2007).

Assays:
[1] = target: T1, GM-CSF receptor alpha chain (Balb/c form, Asp227; on Ba/F3 cells expressing beta chain) (Mus musculus, UniProt Q00941); assay: flow cytometry cell binding, non-linear regression
T1 chain: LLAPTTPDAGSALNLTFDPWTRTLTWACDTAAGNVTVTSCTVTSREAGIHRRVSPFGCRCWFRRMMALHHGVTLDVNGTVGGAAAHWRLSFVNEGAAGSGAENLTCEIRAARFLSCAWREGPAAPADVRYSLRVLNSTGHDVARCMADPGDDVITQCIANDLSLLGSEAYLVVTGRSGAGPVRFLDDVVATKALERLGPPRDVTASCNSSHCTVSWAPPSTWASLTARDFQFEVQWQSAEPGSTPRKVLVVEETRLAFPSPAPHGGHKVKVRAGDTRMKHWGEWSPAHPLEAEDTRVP

[2] = target: T2, GM-CSF receptor alpha chain (C57BL/6 form, Gly227; on Ba/F3 cells expressing beta chain) (Mus musculus, UniProt Q00941); assay: flow cytometry cell binding, non-linear regression
T2 chain: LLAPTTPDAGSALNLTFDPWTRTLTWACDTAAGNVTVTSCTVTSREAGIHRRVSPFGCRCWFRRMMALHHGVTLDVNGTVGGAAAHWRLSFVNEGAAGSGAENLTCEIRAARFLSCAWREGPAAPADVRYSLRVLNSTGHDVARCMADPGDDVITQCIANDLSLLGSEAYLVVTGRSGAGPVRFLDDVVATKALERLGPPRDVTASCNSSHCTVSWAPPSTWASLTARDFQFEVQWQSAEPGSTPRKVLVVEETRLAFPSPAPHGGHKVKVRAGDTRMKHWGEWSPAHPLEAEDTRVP

- Kd [1]: 15.6 nM
- Kd [2]: 19.6 nM
B1: GM-CSF-Fc fusion (GM-Fc) (protein)
chain: APTRSPITVTRPWKHVEAIKEALNLLDDMPVTLNEEVEVVSNEFSFKKLTCVQTRLKIFEQGLRGNFTKLKGALNMTASYYQTYCPPTPETDCETQVTTYADFIDSLKTFLTDIPFECKKPGQK
modifications: GM-CSF fused to mutated human IgG1 Fc, Ba/F3 cells co-expressing beta chain
